Test results from patent US8147817B2, “IL-33 in the treatment and diagnosis of diseases and disorders” (The Brigham and Women's Hospital, Inc., priority 2006, dated 2012).
Entries after “also recorded” stand apart in the source; their conditions may differ. Where two headings read alike, the source gives them in different places.

Columns and labels:
[1] = tested on: cardiomyocytes; test: Oxidative stress assay (DCFDA, ROS generation); format: cell-based, rat; conditions: co-treatment with IL-33
Protocol: An assay to detect oxidative stress was performed as reported previously (48). Cardiomyocytes were incubated with 2,7-dichlorodihydrofluorecein diacetate (DCFDA) for 45 min, washed in phosphate-buffered saline, and fluorescence intensity was measured using a fluorometer (PerkinElmer Life Science) at 595 nm.

[2] = tested on: NF-κB; test: NF-κB nuclear binding activity by EMSA in cardiomyocytes; format: cell-based, rat
Protocol: Electromobility shift assays were performed as described previously (8). Cells were lysed for 10 minutes on ice in a solution containing 10 mM HEPES (pH 7.6), 15 mM KCl, 2 mM MgCl2, 0.1 mM ethylenediamine tetraacetic acid (EDTA), 1 mM dithiothreitol (DTT), 0.5 mM phenylmethylsulphonylfluoride (PMSF), 10 μg/mL leupeptin and 0.2% Nonident P-40. Dishes were gently scraped, and nuclei were collected by centrifugation at 800 g for 30 seconds and then suspended in a solution of 50 mM HEPES, 400 mM KCl, 0.1 mM EDTA, 10% glycerol, 1 mM DTT, 0.5 mM PMSF and 10 μg/mL leupeptin. The mixture was incubated on ice for 30 minutes, and the supernatant was collected after centrifugation for 15 minutes at 400 g. Binding reactions were performed with 5 or 10 μg of nuclear protein in 10 mM Tris, 1 mM DTT, 1 mM EDTA, 5% glycerol, 0.1% Triton X-100, 1 mg poly(dIdC), 5 μg bovine serum albumin (BSA) and approximately 10,000 cpm of −32P-labeled oligonucleotide. The binding reactions for AP-1 activity also contained 5 mM MgCl2. Control reaction mixtures contained a 100-fold excess of unlabeled oligonucleotide and were incubated with nuclear extracts of IL-1β-treated cells. DNA complexes were separated on a 4% nondenaturing polyacrylamide gel in Tris-HCl (6.7 mM), EDTA (1 mM) and ammonium acetate (3.3 mM). The oligonucleotides contained the NF-B binding site (sequence: 5′-AGTTGAGGGGACTTTCCCAGGC-3′ (SEQ ID NO: 15)) and were labeled by standard procedures.
EMSAs were performed as described previously (47). Cells were lysed for 10 minutes on ice in 10 mM HEPES (pH 7.6), 15 mM KCl, 2 mM MgCl2, 0.1 mM EDTA, 1 mM DTT, 0.5 mM PMSF, 10 μg/mL leupeptin, and 0.2% Nonident P-40. Dishes were gently scraped, and nuclei were collected by centrifugation at 800 g for 30 seconds and then suspended in a solution of 50 mM HEPES, 400 mM KCl, 0.1 mM EDTA, 10% glycerol, 1 mM DTT, 0.5 mM PMSF, and 10 μg/mL leupeptin. The mixture was incubated on ice for 30 minutes, and the supernatant was collected after centrifugation for 15 minutes at 400 g. Binding reactions were performed with 5 or 10 μg of nuclear protein in 10 mM Tris, 1 mM DTT, 1 mM EDTA, 5% glycerol, 0.1% Triton X-100, 1 mg poly(dIdC), […] BSA, and 10,000 cpm of [^32P]-labeled oligonucleotide. The specific NF-κB consensus oligonucleotides were 5′-[…]-3′ (SEQ ID NO: 15) and 5′-[…]-3′ (SEQ ID NO: 18) (Promega). Positive and negative control mixtures as well as specific competition mixtures were made as recommended by the manufacturer's instructions, using binding buffer with positive samples, labeled NF-κB oligonucleotides and 10-fold excess of cold NF-κB consensus oligonucleotides for specific competition. DNA complexes were separated on a 6% nondenaturing polyacrylamide gel in Tris-HCl (6.7 mM), EDTA (1 mM), and ammonium acetate (3.3 mM).

[3] = target: T1, mouse ST2 (Mus musculus, UniProt P14719); test: Pull-down assay of recombinant IL-33 with mouse ST2-Fc protein; format: binding
T1 construct: purchased R&D
T1 sequence (P14719 27-337 isoform P14719-2 limits assumed): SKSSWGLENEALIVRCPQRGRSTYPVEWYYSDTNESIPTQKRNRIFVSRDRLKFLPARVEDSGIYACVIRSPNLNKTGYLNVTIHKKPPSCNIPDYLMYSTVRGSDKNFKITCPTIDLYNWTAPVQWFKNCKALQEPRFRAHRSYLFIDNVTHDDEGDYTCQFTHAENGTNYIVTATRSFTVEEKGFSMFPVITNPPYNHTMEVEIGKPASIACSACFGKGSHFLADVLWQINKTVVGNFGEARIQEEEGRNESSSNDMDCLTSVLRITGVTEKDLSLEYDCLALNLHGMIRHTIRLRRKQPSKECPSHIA
Excerpt: The GenBank™ accession number for rat IL-33 is BC081993. The rat IL-33 cDNA was subcloned into the expression vector pTrcHis-TOPO (Invitrogen), starting with amino acid 109 of the full-length protein with an N-terminal His tag. After sequencing, One-shot TOP10 bacteria (Invitrogen) were transformed and expression was induced with Isopropyl β-D-1-thiogalactopyranoside (Sigma). Four hours after induction, bacteria were harvested, and the pellet was resuspended in B-PER Bacterial Protein Extraction Reagent (Pierce) with EDTA-free protease inhibitor cocktail (Sigma). The lysate was purified with Ni-chelating affinity chromatography using a Ni-NTA Purification system (Invitrogen). Briefly, Ni NTA beads were washed twice after batch binding with 40 ml of 20 mM Imidazole, 300 mM NaCl, 50 mM potassium phosphate, pH 8.0. IL-33 was eluted with 10 ml of 250 mM Imidazole, 300 mM NaCl, 50 mM potassium phosphate, pH 8.0. IL-33 protein was further concentrated, dialyzed and purified by high-performance liquid chromatography (BioLogic DuoFlow System, Bio-Rad, Hercules, Calif.) using HiPrep sephacryl size exclusion column (GE Healthcare Bioscience, Piscataway, N.J.) with buffer containing 150 mM NaCl, 50 mM potassium phosphate, pH 7.2. Endotoxin level (<0.03 EU/μg protein) was determined by Limulus Amebocyte Lysate PYROGENT Ultra (Cambrex) as previously described (12). […]

B1: IL-33: recombinant mature rat IL-33, starting with amino acid 109 of the full-length protein, N-terminal His tag (GenBank BC081993) (protein)
chain: SIQGTSLLTESCALSTYNDQSVSFVLENGCYVINVEDCGKNQEKDKVLLRYYESSFPAQSGDGVDGKKLMVNMSPIKDTDIWLNANDKDYSVELQKGDVSPPDQAFFVLHKKSSDFVSFECKNLPGTYIGVKDNQLALVEENDESCNNIMFKLSKM
modifications: left off: small tags and cut ends
ROS generation in the presence of angiotensin-II or phenylephrine [1]: significantly decreased the generation of ROS; also recorded: inhibited by IL-33 in cardiomyocytes
reduction of NF-κB nuclear binding activity induced by PDGF-BB or TNF-α ([2]; PDGF-BB (10 ng/ml) or TNF-α (10 ng/ml), IL-33 10 ng/ml): not observed; also recorded: did not block
NF-κB activation by agent alone ([2]; cardiomyocytes, angiotensin-II 1 μM, phenylephrine 50 μM, IL-33 10 ng/ml): independently activated NF-κB in both cell types; also recorded: mildly activated NF-κB
angiotensin-II- or phenylephrine-induced NF-κB activation ([2]; cardiomyocytes, co-treatment with IL-33 10 ng/ml): markedly attenuated
binding to mouse ST2 (pulldown with ST2-Fc chimera protein) [3]: bound to the mouse ST2 protein
binding to mouse ST2 (pulldown with ST2-Fc chimera protein) ([3]; listed as recombinant IL-33): exhibits specific binding to mouse ST2
